Measured values published in publication PMC10682391, “Discovery of a non-canonical prototype long-chain monoacylglycerol lipase through a structure-based endogenous reaction intermediate complex” (Nature Communications, 2023).

Tests used:
Tth MAG lipase [1] = biological target: T1, Tth MAG lipase (Thermoanaerobacter ethanolicus, UniProt A0A1G7VV58); assay: X-ray crystal structure; type: binding; settings: active site, bound by Glu43; native protein crystals, no glycerol added
T1 construct: gene SAMN04244560_02687; full length, residues 1-259; E. coli; pETM-14, Ni-NTA purified (kinetics); pETBlue-1 (crystals, some SeMet and lysine-methylated); homodimer; Ser113/His233, HGF 35-37, FSE 77-79, lid 141-183

Tth MAG lipase [2] = biological target: T1, Tth MAG lipase; assay: X-ray crystal structure; LC-MS of dissolved crystals; type: binding; settings: endogenous ligand from E. coli; loosely coordinated tetrahedral intermediate at Ser113; SeMet, lysine-methylated protein; active site and lid tunnel
[3] = biological target: Tth MAG lipase (wild type), monoacylglycerol lipase from Thermoanaerobacter thermohydrosulfuricus (Thermoanaerobacter thermohydrosulfuricus); assay: SEC; size exclusion chromatography profile, Superdex 75 increase 3.2/300 column (Cytiva); dimeric and monomeric fractions
Tth MAG lipase [4] = biological target: T1, Tth MAG lipase; assay: pNP ester hydrolysis, […] nm, Michaelis-Menten fit; type: biochemical; settings: 50 mM Tris-HCl pH 8.0, 40 °C, 1 mg/ml gum arabic
purified protein [5] = substrate: CCCC(=O)Oc1ccc([N+](=O)[O-])cc1; assay: purified protein; type: biochemical, Thermoanaerobacter ethanolicus; settings: 50 mM Tris-HCl pH 8.0, 40 °C, 1 mg/ml gum arabic
purified protein [6] = substrate: CCCCCCCCCCCC(=O)Oc1ccc([N+](=O)[O-])cc1; assay: purified protein; type: biochemical, Thermoanaerobacter ethanolicus; settings: 50 mM Tris-HCl pH 8.0, 40 °C, 1 mg/ml gum arabic
purified protein [7] = substrate: CCCCCCCCCCCCCC(=O)Oc1ccc([N+](=O)[O-])cc1; assay: purified protein; type: biochemical, Thermoanaerobacter ethanolicus; settings: 50 mM Tris-HCl pH 8.0, 40 °C, 1 mg/ml gum arabic
purified protein [8] = substrate: CCCCCCCC(=O)Oc1ccc([N+](=O)[O-])cc1; assay: purified protein; type: biochemical, Thermoanaerobacter ethanolicus; settings: 50 mM Tris-HCl pH 8.0, 40 °C, 1 mg/ml gum arabic
purified protein [9] = substrate: CCCCCC(=O)Oc1ccc([N+](=O)[O-])cc1; assay: purified protein; type: biochemical, Thermoanaerobacter ethanolicus; settings: 50 mM Tris-HCl pH 8.0, 40 °C, 1 mg/ml gum arabic

OCC(O)CO [glycerol]
X-ray crystal structure (Tth MAG lipase [1]): glycerol is found in a literally identical active site position in five out of six

CCCCCCCCCCCCCCCCCC(=O)OCC(O)CO (stereo not shown) [glycerol monostearate, 2,3-dihydroxypropyloctadecanoate]
X-ray crystal structure; LC-MS of dissolved crystals (Tth MAG lipase [2]): we modeled a monostearate (C18) acyl ligand into the electron density of the active Tth

Tth MAG lipase (wild type), monoacylglycerol lipase from Thermoanaerobacter thermohydrosulfuricus (enzyme)
stoichiometry N [3]: 2

CC(=O)Oc1ccc([N+](=O)[O-])cc1 [C2 pNP ester]
Km (Tth MAG lipase [4]): > 2000 µM

B1: Tth MAG lipase (Thermoanaerobacter ethanolicus subsp. thermohydrosulfuricus) (protein)
chain: MQKAVEITYNGKTLRGMMHLPDDVKGKVPMVIMFHGFTGNKVESHFIFVKMSRALEKVGIGSVRFDFYGSGESDGDFSEMTFSSELEDARQILKFVKEQPTTDPERIGLLGLSMGGAIAGIVAREYKDEIKALVLWAPAFNMPELIMHESVKQYGAIMEQLGFVDIGGHKLSKDFVEDISKLNIFELSKGYDKKVLIVHGTNDEAVEYKVSDRILKEVYGDNATRVTIENADHTFKSLEWEKKAIEESVEFFKKELLKG
notes: full length, residues 1-259; E. coli; pETM-14, Ni-NTA purified (kinetics); pETBlue-1 (crystals, some SeMet and lysine-methylated); homodimer; Ser113/His233, HGF 35-37, FSE 77-79, lid 141-183
Km (purified protein [5]): 7.1 ± 0.7 x 10^-1 mM | kcat (purified protein [5]): 8.6 ± 0.5 s⁻¹ | Km (purified protein [6]): 100 µM | Km (purified protein [7]): 100 µM | Km (purified protein [8]): 4.9 ± 1.5 x 10^-1 mM | kcat (purified protein [8]): 5.5 ± 0.8 s⁻¹ | Km (purified protein [9]): 3.6 ± 0.8 x 10^-1 mM | kcat (purified protein [9]): 4.9 ± 0.4 s⁻¹

B2: Tth MAG lipase (Thermoanaerobacter ethanolicus subsp. thermohydrosulfuricus; Y154A) (protein)
chain: MQKAVEITYNGKTLRGMMHLPDDVKGKVPMVIMFHGFTGNKVESHFIFVKMSRALEKVGIGSVRFDFYGSGESDGDFSEMTFSSELEDARQILKFVKEQPTTDPERIGLLGLSMGGAIAGIVAREYKDEIKALVLWAPAFNMPELIMHESVKQAGAIMEQLGFVDIGGHKLSKDFVEDISKLNIFELSKGYDKKVLIVHGTNDEAVEYKVSDRILKEVYGDNATRVTIENADHTFKSLEWEKKAIEESVEFFKKELLKG
notes: as for B1
Km (purified protein [9]): 4.8 ± 0.8 x 10^-1 mM | kcat (purified protein [9]): 5.7 ± 0.4 s⁻¹

B3: Tth MAG lipase (Thermoanaerobacter ethanolicus subsp. thermohydrosulfuricus; E43A) (protein)
chain: MQKAVEITYNGKTLRGMMHLPDDVKGKVPMVIMFHGFTGNKVASHFIFVKMSRALEKVGIGSVRFDFYGSGESDGDFSEMTFSSELEDARQILKFVKEQPTTDPERIGLLGLSMGGAIAGIVAREYKDEIKALVLWAPAFNMPELIMHESVKQYGAIMEQLGFVDIGGHKLSKDFVEDISKLNIFELSKGYDKKVLIVHGTNDEAVEYKVSDRILKEVYGDNATRVTIENADHTFKSLEWEKKAIEESVEFFKKELLKG
notes: as for B1
Km (purified protein [9]): 7.1 ± 3.0 x 10^-1 mM | kcat (purified protein [9]): 1.2 ± 0.3 x 10^1 s^-1
